In patent US20260167721A1 (ABLEXIS, published 2026):

B1: CD3 × CD33-BspAb115 (bispecific antibody)
scFv-Fc: NFMLTQPHSVSESPGKTVTISCTRTSGSIASNYVQWYQQRPGSSPTTVIYEDNQRPSGVPDRFSGSIDSSSNSASLTISGLKTEDEAAYYCQSYDRSNRVFGCGTKLTVLGGGGSGGGGSGGGGSGGGGSQVQLQESGPGLVKPSETLSLTCTVSGGSISSYYWSWIRQPAGKCLEWIGRIYTSGSTKYNPSLKSRVTMSVDTSKNQFSLKLISVTAADTAVYFCARERIRDLYFDYWGQGTLVTVSSGGGGSDKTHTCPPCPAPEFEGGPSVFLFPPKPKDTLMISRTPEVTCVVVDVSHEDPEVKFNWYVDGVEVHNAKTKPREEQYNSTYRVVSVLTVLHQDWLNGKEYKCKVSNKALPASIEKTISKAKGQPREPQVYTLPPCREEMTKNQVSLWCLVKGFYPSDIAVEWESNGQPENNYKTTPPVLDSDGSFFLYSKLTVDKSRWQQGNVFSCSVMHEALHNHYTQKSLSLSPGK
heavy: EVQLVQSGAEVKKPGSSVKVSCKASGYTITDSNIHWVRQAPGQSLEWIGYIYPYNGGTDYNQKFKNRATLTVDNPTNTAYMELSSLRSEDTAFYYCVNGNPWLAYWGQGTLVTVSSASTKGPSVFPLAPSSKSTSGGTAALGCLVKDYFPEPVTVSWNSGALTSGVHTFPAVLQSSGLYSLSSVVTVPSSSLGTQTYICNVNHKPSNTKVDKRVEPKSCDKTHTCPPCPAPEFEGGPSVFLFPPKPKDTLMISRTPEVTCVVVDVSHEDPEVKFNWYVDGVEVHNAKTKPREEQYNSTYRVVSVLTVLHQDWLNGKEYKCKVSNKALPASIEKTISKAKGQPREPQVCTLPPSREEMTKNQVSLSCAVKGFYPSDIAVEWESNGQPENNYKTTPPVLDSDGSFFLVSKLTVDKSRWQQGNVFSCSVMHEALHNRFTQKSLSLSPGK
light: DIQLTQSPSTLSASVGDRVTITCRASESLDNYGIRFLTWFQQKPGKAPKLLMYAASNQGSGVPSRFSGSGSGTEFTLTISSLQPDDFATYYCQQTKEVPWSFGQGTKVEVKRTVAAPSVFIFPPSDEQLKSGTASVVCLLNNFYPREAKVQWKVDNALQSGNSQESVTEQDSKDSTYSLSSTLTLSKADYEKHKVYACEVTHQGLSSPVTKSFNRGEC
notes: KiH heterodimer
B2: CD3 × CD33-BspAb122 (bispecific antibody)
chain 1: QTVVTQEPSFSVSPGGTVTLTCGLSSGSVSTSYYPSWYQQTPGQAPRTLIYSTNTRSSGVPDRFSGSILGNKAALTITGAQADDESDYYCVLYMGSGIWVFGCGTKLTVLGGGGSGGGGSGGGGSGGGGSEVQLVESGGGLVKPGGSLRLSCAASGFTVSNYSMNWVRQAPGKCLEWVSSISRSSSYIYYADSVKGRFTISRDNAKNSLFLQMNSLRAEDTAVYYCARERWELLYFDYWGQGTLVTVSSDKTHTCPPCPAPEFEGGPSVFLFPPKPKDTLMISRTPEVTCVVVDVSHEDPEVKFNWYVDGVEVHNAKTKPREEQYNSTYRVVSVLTVLHQDWLNGKEYKCKVSNKALPASIEKTISKAKGQPREPQVYTLPPCREEMTKNQVSLWCLVKGFYPSDIAVEWESNGQPENNYKTTPPVLDSDGSFFLYSKLTVDKSRWQQGNVFSCSVMHEALHNHYTQKSLSLSPGK
chain 2: B1 heavy
chain 3: B1 light
B3: CD3 × CD33-BspAb116 (bispecific antibody)
scFv-Fc: NFMLTQPHSVSESPGKTVTISCTRSSGSIASNYVQWYQQRPGSSPTTVIYEDNQRPSGVPDRFSGSIDSSSNSASLTISGLKTEDEAYYYCQSFDSSNRVFGCGTKLTVLGGGGSGGGGSGGGGSGGGGSQVQLQESGPGLVKPSQTLSLTCTVSGGSISSGGYYWSWIRQHPGKCLEWIGYIYYSGSTYYNPSLKSRVTISVDTSKDQFSLKLSSVTAADTAVYYCARERKTSLPFDIWGQGTMVTVSSGGGGSDKTHTCPPCPAPEFEGGPSVFLFPPKPKDTLMISRTPEVTCVVVDVSHEDPEVKFNWYVDGVEVHNAKTKPREEQYNSTYRVVSVLTVLHQDWLNGKEYKCKVSNKALPASIEKTISKAKGQPREPQVYTLPPCREEMTKNQVSLWCLVKGFYPSDIAVEWESNGQPENNYKTTPPVLDSDGSFFLYSKLTVDKSRWQQGNVFSCSVMHEALHNHYTQKSLSLSPGK
heavy: B1 heavy
light: B1 light
notes: KiH heterodimer
B4: CD3 × CD33-BspAb117 (bispecific antibody)
scFv-Fc: NFMLTQPHSVSESPGKTVTISCTRSSGSIASNYVQWYQQRPGSSPTSVIYEDNQRPSGVPDRFSGSIDSSSNSASLTISGLKTEDEADYYCQSYDRSNRVFGCGTKLTVLGGGGSGGGGSGGGGSGGGGSEVQLVESGGGLVKPGGSLRLSCAASGLTFSTYSMNWVRQAPGKCLEWVSSISSSGSYVYYADSVKGRFTMSRDNAKNSLYLQMNSLRAEDTAVYYCARERRELLFDYWGQGTLVTVSSGGGGSDKTHTCPPCPAPEFEGGPSVFLFPPKPKDTLMISRTPEVTCVVVDVSHEDPEVKFNWYVDGVEVHNAKTKPREEQYNSTYRVVSVLTVLHQDWLNGKEYKCKVSNKALPASIEKTISKAKGQPREPQVYTLPPCREEMTKNQVSLWCLVKGFYPSDIAVEWESNGQPENNYKTTPPVLDSDGSFFLYSKLTVDKSRWQQGNVFSCSVMHEALHNHYTQKSLSLSPGK
heavy: B1 heavy
light: B1 light
notes: KiH heterodimer
B5: CD3 × CD33-BspAb121 (bispecific antibody)
chain 1: QTVVTQEPSLTVSPGGTVTLTCASSTGAVTSGYYPNWFQQKPGQAPRALIYSTSNKHSWTPARFSGSLLGGKAALTLSGVQPEDEAEYYCLLYYGGAYVFGCGTKVTVLGGGGSGGGGSGGGGSGGGGSEVQLVESGGGLVKPGGSLRLSCAASGFTFSSYSMNWVRQAPGKCLEWVSSISRSGTYIYYADSVKGRFTISRDNAKNSLYLQMNSLRAEDTAVYYCARERWELLYFDYWGQGTLVTVSSDKTHTCPPCPAPEFEGGPSVFLFPPKPKDTLMISRTPEVTCVVVDVSHEDPEVKFNWYVDGVEVHNAKTKPREEQYNSTYRVVSVLTVLHQDWLNGKEYKCKVSNKALPASIEKTISKAKGQPREPQVYTLPPCREEMTKNQVSLWCLVKGFYPSDIAVEWESNGQPENNYKTTPPVLDSDGSFFLYSKLTVDKSRWQQGNVFSCSVMHEALHNHYTQKSLSLSPGK
chain 2: B1 heavy
chain 3: B1 light
B6: CD3 × CD33-BspAb120 (bispecific antibody)
chain 1: NFMLTQPHSVSESPGKTVAISCTRSSGSIASNYVQWYQQRPGSSPTAVIYEDNQRPSGVPDRFSGSIDSSSNSAFLTISGLKTEDEADYYCQSYDSSNRVFGCGTKLTVLGGGGSGGGGSGGGGSGGGGSEVQLVESGGGLVKPGGSLRLSCAASGFTFSSYSMNWVRQAPGKCLEWVSSISRSSGYIFYADSVKGRFTISRDNAKNSLYLQMNSLRAEDTAVYYCVRERVGAGFDYWGQGTLVTVSSDKTHTCPPCPAPEFEGGPSVFLFPPKPKDTLMISRTPEVTCVVVDVSHEDPEVKFNWYVDGVEVHNAKTKPREEQYNSTYRVVSVLTVLHQDWLNGKEYKCKVSNKALPASIEKTISKAKGQPREPQVYTLPPCREEMTKNQVSLWCLVKGFYPSDIAVEWESNGQPENNYKTTPPVLDSDGSFFLYSKLTVDKSRWQQGNVFSCSVMHEALHNHYTQKSLSLSPGK
chain 2: B1 heavy
chain 3: B1 light
B7: CD3 × CD33-BspAb118 (bispecific antibody)
scFv-Fc: FMLTQPHSVSESPGKTVTISCTRSSGSIASNYVQWYQQRPGSSPTTVIYEDNQRPSGVPDRFSGSIDSSSNSASLTISGLQTEDEADYYCQSYDSSNRVFGCGTKLTVLGGGGSGGGGSGGGGSGGGGSEVQLVESGGGLVKPGGSLRLSCVASGFTFSRYSMNWVRQAPGKCLEWVSSISSSSRYTYYADSLKGRFIMSRDNAKNSLFLQMNSLRAEDTAVYYCARNLYNALDYWGQGTLVTVSSGGGGSDKTHTCPPCPAPEFEGGPSVFLFPPKPKDTLMISRTPEVTCVVVDVSHEDPEVKFNWYVDGVEVHNAKTKPREEQYNSTYRVVSVLTVLHQDWLNGKEYKCKVSNKALPASIEKTISKAKGQPREPQVYTLPPCREEMTKNQVSLWCLVKGFYPSDIAVEWESNGQPENNYKTTPPVLDSDGSFFLYSKLTVDKSRWQQGNVFSCSVMHEALHNHYTQKSLSLSPGK
heavy: B1 heavy
light: B1 light
notes: KiH heterodimer

Target: T1, human CD3 (TCR/CD3 complex on the cell surface) (human, UniProt P07766 23-207; P04234 22-171; P09693 23-182)
T1 construct: whole, on cells; Native CD3 on human Pan-T cells or Jurkat wild-type cells; also called CD3 on Pan-T cells; CD3 on Jurkat WT cells
Assay: flow cytometry, Jurkat WT cells, 1 ug/mL

T1 sequence (P07766 23-207, chain 1 of 3): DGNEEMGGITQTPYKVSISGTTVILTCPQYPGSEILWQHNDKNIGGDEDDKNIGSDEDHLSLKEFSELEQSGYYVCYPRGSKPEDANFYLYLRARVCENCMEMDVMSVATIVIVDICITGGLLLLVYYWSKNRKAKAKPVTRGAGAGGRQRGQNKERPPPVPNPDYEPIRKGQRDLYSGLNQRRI
T1 sequence (P04234 22-171, chain 2 of 3): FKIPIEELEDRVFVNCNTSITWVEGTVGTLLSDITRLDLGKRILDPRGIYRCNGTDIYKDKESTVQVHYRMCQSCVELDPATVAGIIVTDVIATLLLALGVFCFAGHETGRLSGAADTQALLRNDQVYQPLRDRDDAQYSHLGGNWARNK
T1 sequence (P09693 23-182, chain 3 of 3): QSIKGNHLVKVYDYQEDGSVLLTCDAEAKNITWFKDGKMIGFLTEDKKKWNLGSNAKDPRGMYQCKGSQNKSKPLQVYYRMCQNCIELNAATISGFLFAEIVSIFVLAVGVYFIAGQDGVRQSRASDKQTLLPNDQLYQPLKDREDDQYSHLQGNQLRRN

gMFI [gMFI]	Binder
7380	B1
1910	B2
3320	B3
29700	B4
1920	B5
8730	B6
56300	B7

Target: T1, human CD3 (TCR/CD3 complex on the cell …)
Assay: flow cytometry, Pan-T cells, 1 ug/mL

% Positive [%]	gMFI [gMFI]	Binder
63.4	8660	B1
1.9	2080	B2
31.6	5260	B3
99.6	70300	B4
1.5	1920	B5
95.2	27600	B6
99.3	331000	B7

Target: T1, human CD3 (TCR/CD3 complex on the cell …)
Assay: flow cytometry, Jurkat WT cells, 10 ug/mL

gMFI [gMFI]	Binder
12600	B1
1980	B2
9600	B3
38600	B4
2040	B5
14600	B6
65000	B7

Target: T1, human CD3 (TCR/CD3 complex on the cell …)
Assay: flow cytometry, Jurkat WT gMFI over Jurkat KO gMFI, 10 ug/mL

Jurkat WT/KO (Fold) [fold]	Binder
5.7	B1
1	B2
4.1	B3
10.6	B4
1	B5
6.1	B6
13.8	B7

Target: T1, human CD3 (TCR/CD3 complex on the cell …)
Assay: flow cytometry, Pan-T cells, 10 ug/mL

% Positive [%]	gMFI [gMFI]	Binder
95.5	34200	B1
1	2020	B2
98.2	30000	B3
99.7	195000	B4
1.5	1920	B5
99.3	87700	B6
99.8	370000	B7

Target: T1, human CD3 (TCR/CD3 complex on the cell …)
Assay: flow cytometry, Jurkat WT gMFI over Jurkat KO gMFI, 1 ug/mL

Jurkat WT/KO (Fold) [fold]	Binder
3.6	B1
0.8	B2
1.6	B3
8.7	B4
0.8	B5
3.7	B6
12.3	B7
